These results are taken from US20200149021, “SYSTEM AND METHOD FOR GENOME EDITING” (INSTITUTE OF ZOOLOGY, CHINESE ACADEMY OF SCIENCES, published 2020).

The target in the data set is T1, BsCpf1 (Butyrivibrio sp. NC30).
T1 chain: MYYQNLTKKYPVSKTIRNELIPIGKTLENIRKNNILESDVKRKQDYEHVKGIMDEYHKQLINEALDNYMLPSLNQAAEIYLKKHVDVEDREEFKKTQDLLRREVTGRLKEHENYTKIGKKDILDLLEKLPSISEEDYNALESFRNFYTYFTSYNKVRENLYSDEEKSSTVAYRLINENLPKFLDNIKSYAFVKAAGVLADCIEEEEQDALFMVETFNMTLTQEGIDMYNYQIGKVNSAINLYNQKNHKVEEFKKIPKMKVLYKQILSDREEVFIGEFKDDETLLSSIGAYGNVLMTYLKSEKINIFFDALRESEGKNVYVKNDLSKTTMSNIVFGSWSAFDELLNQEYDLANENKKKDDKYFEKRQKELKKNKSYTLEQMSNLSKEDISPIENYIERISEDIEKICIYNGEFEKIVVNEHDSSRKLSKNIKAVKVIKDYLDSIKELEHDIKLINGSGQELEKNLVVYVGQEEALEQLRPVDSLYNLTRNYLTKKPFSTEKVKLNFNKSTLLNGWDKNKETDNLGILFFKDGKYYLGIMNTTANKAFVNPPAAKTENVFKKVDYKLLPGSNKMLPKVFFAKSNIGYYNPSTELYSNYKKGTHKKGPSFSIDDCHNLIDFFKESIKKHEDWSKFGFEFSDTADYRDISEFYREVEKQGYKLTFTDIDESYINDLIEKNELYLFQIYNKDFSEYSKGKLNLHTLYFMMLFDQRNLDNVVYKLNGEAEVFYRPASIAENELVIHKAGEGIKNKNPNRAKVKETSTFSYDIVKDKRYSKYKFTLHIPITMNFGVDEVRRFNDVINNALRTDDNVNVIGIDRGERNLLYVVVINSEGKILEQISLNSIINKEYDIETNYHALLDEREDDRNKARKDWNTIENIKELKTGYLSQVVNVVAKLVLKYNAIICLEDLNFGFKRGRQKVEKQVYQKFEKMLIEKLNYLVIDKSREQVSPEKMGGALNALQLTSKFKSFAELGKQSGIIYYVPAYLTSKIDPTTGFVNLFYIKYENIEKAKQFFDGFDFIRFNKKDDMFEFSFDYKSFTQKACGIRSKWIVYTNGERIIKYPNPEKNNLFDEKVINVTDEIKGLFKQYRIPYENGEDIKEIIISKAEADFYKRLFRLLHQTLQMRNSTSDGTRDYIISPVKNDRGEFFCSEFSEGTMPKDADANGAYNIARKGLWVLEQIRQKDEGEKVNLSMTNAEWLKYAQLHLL
Description: cell_activity; PAM TTTC; T7EI. To be noted: tags: HA (2A-eGFP vector). Here is the method:
GFP-positive cells were sorted by FACS, lysed with Buffer L+ 1/100V Protease K (Biotool) at 55° C. for 30 min, inactivated at 95° C. for 5 min, and directly used for PCR detection. Appropriate primers were designed near the Cpf1 targeting site, and the amplified product was purified using DNA Clean & Concentrator™-5 kit (ZYMO Research). 200 ng of purified PCR product was added into 1 uL of NEBuffer2 (NEB) and diluted to 10 uL with ddH₂O. Then, heterodimers were formed by re-annealing according to the previously reported method (Li, W., et al., Simultaneous generation and germline transmission of multiple gene mutations in rat using CRISPR-Cas systems. Nat Biotechnol, 2013. 31(8): p. 684-6). The reannealed product was added with 0.3 uL of T7EI endnucelease and 1/10 V NEBuffer2 (NEB), and digested at 37° C. for 1 h 30 min. Genotype analysis was performed by 3% TAE-Gel electrophoresis. Indels were calculated according to the method reported in the previous article (Cong, L., et al., Multiplex genome engineering using CRISPR/Cas systems. Science, 2013. 339(6121): p. 819-23).
The cells were transfected with Cpf1, crRNA31, and crRNA2 plasmids, and it was confirmed by PCR and T7EI analysis that crRNA31 can increase the editing efficiency of five Cpf1s of ArCpf1, BsCpf1, HkCpf1, PrCpf1, and PxCpf1 at the site MeCP2-4 by two folds (FIG. 13B).

B1: crRNA31 MeCP2 site 4 ; Mouse MeCP2 site 4 (ssRNA ; dsDNA)
RNA: AUUUCUACUAUGGUAGAUGUGUCCAACCUUCAGGCAAGGUG
DNA 1: TTTCGTGTCCAACCTTCAGGCAAGGTG
DNA 2: CACCTTGCCTGAAGGTTGGACACGAAA
Consider B1, for which the editing efficiency is about 2 fold vs crRNA2.
